In US20260049134A1 (UNIVERSITY OF FLORIDA RESEARCH FOUNDATION, published 2026):
Changes are numbered by the printed parent chain. In names and notes the source's numbering stands. Each block holds one binder with its values, some of them ahead of it.

Key:
[1] = biological target: T1, GARS-His (Sino Biological) (human, UniProt P41250 37-739, limits assumed); assay: ELISA on coated GARS-His
T1 construct: Bought; also called GARS1; glycyl-tRNA synthetase; not shown: His tag of the bought protein
T1 sequence: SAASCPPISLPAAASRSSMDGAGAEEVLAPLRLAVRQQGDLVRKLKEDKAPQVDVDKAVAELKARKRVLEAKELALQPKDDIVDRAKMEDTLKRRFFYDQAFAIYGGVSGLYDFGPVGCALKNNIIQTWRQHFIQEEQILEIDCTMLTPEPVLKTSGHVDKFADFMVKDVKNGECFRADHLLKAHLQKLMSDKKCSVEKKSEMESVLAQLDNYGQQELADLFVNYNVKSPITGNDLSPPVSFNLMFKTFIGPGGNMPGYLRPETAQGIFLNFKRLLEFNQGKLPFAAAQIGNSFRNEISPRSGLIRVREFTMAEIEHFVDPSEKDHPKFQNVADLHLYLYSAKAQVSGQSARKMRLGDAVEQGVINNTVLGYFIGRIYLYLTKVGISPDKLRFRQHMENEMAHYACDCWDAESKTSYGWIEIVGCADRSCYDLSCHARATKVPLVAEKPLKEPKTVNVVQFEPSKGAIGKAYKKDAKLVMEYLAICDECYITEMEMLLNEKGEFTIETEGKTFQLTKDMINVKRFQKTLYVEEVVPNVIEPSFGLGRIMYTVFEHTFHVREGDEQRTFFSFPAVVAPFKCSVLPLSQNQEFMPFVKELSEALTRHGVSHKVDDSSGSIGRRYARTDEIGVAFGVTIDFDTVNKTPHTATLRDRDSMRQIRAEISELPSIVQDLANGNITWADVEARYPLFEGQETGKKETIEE
Procedure: (§1) Recombinant purified ECDs (50-150 ng) of each putative target protein were coated, incubated with 150 ng of the indicated primary antibody, and binding was detected using a peroxidase-conjugated anti-human Fab secondary antibody. Heatmap represents averages of technical triplicates. (8B) Target validation via siRNA knockdown. H929 cells were transfected with siRNA pools targeting the putative antibody targets ICAM1, CADM1, and PTPRG. Cells were then subjected to cognate IgG binding analysis via flow cytometry. (NT, non-targeting siRNA).
ELISA ELISA was conducted as described previously. Briefly, 50-150 ng of antigen was coated overnight in half-area 96-well plates at 4° C., blocked with 3% BSA at 37° C. for 1 h, and 150 ng of chimeric rabbit/human IgG1 was added, incubating for 2 h at 37° C. […] After incubating at 37° C. for 15 min-1 h (depending on intensity of controls), data were acquired using a SpectraMax M5 plate reader (Molecular Devices).

[2] = biological target: T2, PTPRG, endogenous in H929 multiple myeloma cells (human, UniProt P23470 20-1445); assay: flow cytometry, H929 + PTPRG siRNA (target knocked down); None 2.13
T2 construct: Native protein on H929 cells (flow cytometry, siRNA knockdown) and in H929 lysates (IP/MS); also called phosphatase receptor type γ
T2 sequence (P23470 20-1445 limits assumed): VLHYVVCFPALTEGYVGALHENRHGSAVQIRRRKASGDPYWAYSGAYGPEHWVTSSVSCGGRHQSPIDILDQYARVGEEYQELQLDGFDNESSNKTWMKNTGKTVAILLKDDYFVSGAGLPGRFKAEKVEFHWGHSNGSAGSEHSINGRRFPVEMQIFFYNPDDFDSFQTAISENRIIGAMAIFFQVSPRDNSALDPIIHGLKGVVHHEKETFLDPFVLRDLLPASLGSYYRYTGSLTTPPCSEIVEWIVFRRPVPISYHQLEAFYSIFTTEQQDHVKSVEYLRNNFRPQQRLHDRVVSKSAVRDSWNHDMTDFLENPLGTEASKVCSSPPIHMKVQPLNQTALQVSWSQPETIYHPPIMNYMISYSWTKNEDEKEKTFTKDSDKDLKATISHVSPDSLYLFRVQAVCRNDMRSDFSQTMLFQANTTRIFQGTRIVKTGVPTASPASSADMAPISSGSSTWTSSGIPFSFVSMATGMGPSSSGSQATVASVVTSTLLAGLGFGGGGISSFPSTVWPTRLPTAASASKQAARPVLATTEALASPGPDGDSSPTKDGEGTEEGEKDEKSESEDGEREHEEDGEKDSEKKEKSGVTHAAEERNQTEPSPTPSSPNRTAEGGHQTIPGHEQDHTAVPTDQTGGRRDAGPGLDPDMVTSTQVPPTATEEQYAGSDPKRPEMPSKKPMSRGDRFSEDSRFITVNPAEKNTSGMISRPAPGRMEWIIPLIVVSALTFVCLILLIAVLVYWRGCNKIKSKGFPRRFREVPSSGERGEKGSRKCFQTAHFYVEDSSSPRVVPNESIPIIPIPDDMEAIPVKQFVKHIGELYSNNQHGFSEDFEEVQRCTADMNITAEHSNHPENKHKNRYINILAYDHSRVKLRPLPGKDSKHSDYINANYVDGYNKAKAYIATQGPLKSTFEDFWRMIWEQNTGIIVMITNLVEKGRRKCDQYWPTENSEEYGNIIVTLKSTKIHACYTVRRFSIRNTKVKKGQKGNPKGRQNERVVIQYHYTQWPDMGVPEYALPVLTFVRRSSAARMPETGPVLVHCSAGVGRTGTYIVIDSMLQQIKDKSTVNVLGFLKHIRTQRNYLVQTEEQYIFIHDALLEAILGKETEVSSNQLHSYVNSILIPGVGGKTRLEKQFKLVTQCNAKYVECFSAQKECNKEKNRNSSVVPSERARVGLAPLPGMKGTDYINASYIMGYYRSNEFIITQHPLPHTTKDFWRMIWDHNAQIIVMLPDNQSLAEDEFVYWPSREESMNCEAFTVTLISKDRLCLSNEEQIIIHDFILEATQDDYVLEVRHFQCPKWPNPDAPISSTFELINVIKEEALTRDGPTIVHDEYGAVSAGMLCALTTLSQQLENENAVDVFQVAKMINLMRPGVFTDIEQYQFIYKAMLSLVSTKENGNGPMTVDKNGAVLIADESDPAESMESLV
Procedure: as §1
Staining protocol. Cells were harvested (5×10⁴ cells per sample), washed once with phosphate-buffered saline (PBS) at RT, and a second time with ice-cold FACS buffer (PBS, 0.5% BSA, 2 mM EDTA, 0.1% NaN₃). Cells were stained in 50 μL of primary antibody for 30 min on ice, washed twice with 100 μL FACS buffer, stained with 50 μL of diluted secondary antibody, washed two more times in FACS, and then resuspended in 50 μL FACS buffer. Samples were acquired on an Accuri C6 Plus or a BD FACSCanto II flow cytometer (both from BD Biosciences). Data were analyzed using FlowJo version 10 software. Primary antibodies: Fab (10 μg/mL), IgG1 (0.1 to 50 μg/mL), or 25 μL polyclonal Fabs from periplasmic extracts. Polyclonal Fabs were produced by diluting bacterial stocks by a factor of 100 in autoinduction media and incubating overnight to induce expression as previously described. […] Viability stains: DAPI (Cell Signaling Technology) or SYTOX AADvanced Dead Cell Stain (Thermo Fisher Scientific). Labeling: The panel of chimeric rabbit/human IgG1s was labeled using the Alexa Fluor 647 Labeling Kit (Thermo Fisher Scientific, #A20173) to facilitate single-step staining. Competition: Unlabeled IgG1s were added at saturating concentrations of 60 μg/mL to block the target receptors, incubating on ice for 30 min, followed by the addition of an equal volume of the Alexa Fluor 647 labeled antibody at 2 μg/mL, and the mixture was incubated on ice for another 30 min.

[3] = biological target: T3, CADM1, endogenous in H929 multiple myeloma cells (human, UniProt Q9BY67 45-442); assay: flow cytometry, H929 + vehicle; None 2.74
T3 construct: Native protein on H929 cells (flow cytometry, siRNA knockdown) and in H929 lysates (IP/MS); RPMI-8226 cells were used for sorting with HW-97; also called IGSF4A
T3 sequence: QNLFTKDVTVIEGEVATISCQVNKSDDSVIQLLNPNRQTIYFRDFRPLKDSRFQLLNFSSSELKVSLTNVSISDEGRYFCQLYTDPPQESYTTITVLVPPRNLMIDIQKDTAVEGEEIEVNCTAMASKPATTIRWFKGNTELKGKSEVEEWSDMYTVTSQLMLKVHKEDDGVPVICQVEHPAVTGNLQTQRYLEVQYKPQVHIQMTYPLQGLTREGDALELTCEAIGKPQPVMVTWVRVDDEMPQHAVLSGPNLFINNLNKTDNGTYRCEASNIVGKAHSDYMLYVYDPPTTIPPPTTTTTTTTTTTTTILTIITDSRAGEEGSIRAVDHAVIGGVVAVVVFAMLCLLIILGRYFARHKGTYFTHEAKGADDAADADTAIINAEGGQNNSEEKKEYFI

B3: HW-97 chimeric rabbit-human IgG1 LA/LA/PG (antibody, V domains shown)
VH: QKQLVESGGRLVTPGTPLTLTCTVTGIDLSSHGMSWVRQAPGKGLEWIGVIYPSGSTWYASWARGRFTISKTSTTVDLKMTSLTTEDTATHFCARGDVGGADNNIWGPGTLVTVSS
VL: SFVLTQPASVQVDLGQTVSLTCTAETLSRSYASWYQQKPGQAPVLLIYRDTSRPSGVPDRFSGSSSGNTATLTISGAQAGDEADYYCATSDGSGSSYQYVFGGGTQLTVTG
notes: Fc-silenced (L234A/L235A/P329G) IgG1, lambda; Alexa Fluor 647-labeled in single-step flow cytometry; Prototype of cluster C-97
Cells stained (%) [3]: 98.4%

B5: HW-1 chimeric rabbit-human IgG1 LA/LA/PG (antibody, V domains shown)
VH: QSLEESGGGLFKPTDTLTLTCTASGFSLGSSYAISWVRQAPGKELEWIGTIDSGRAYYARWAKSRSTITRNTNENTVTLKMTSLTAADTATYFCARDLIPTYSQDIWGPGTLVTISS
VL: B3 VL with D13N, E25D, S30R, S95N, G111S
notes: Fc-silenced (L234A/L235A/P329G) IgG1, lambda; Alexa Fluor 647-labeled in single-step flow cytometry; Prototype of cluster C-1
Cells stained (%) [2]: 1.2%

B7: HW-17 chimeric rabbit-human IgG1 LA/LA/PG (antibody, V domains shown)
VH: QSLGESRGRLVTPDETLTLTCTVSGIDLSSNAMSWVRQAPGEGLEWIGTINTGGRAYYASWAKGRFTISRTSTTVDLKMTSLTTEDTATYFCARERYSDGRAYDIWGPGTLVTISS
VL: B3 VL with D13N, E25D, S30R, R49T, T51S, S52N, V57I, S90D, S96I
notes: Fc-silenced (L234A/L235A/P329G) IgG1, lambda; Alexa Fluor 647-labeled in single-step flow cytometry; Cluster C-1
Cells stained (%) [2]: 1.25%

More lines, main results first:

Cells stained (%) [2]: 0.55%
B1: HW-42 chimeric rabbit-human IgG1 LA/LA/PG (antibody, V domains shown)
VH: QSVKESEGGLFKPADTLTLTCTVSGFSLSSNEISWVRQAPGEGLEYIGIIDTGGRAYYAVWARSRSTITRNTNLNTVTLKMTSLTAADTATYFCARGGVDTEWYAFSSWGPGTLVTVPS
VL: B3 VL with D13N, E25D, S30R, Y48F, N68D, S96N
notes: as for B7
binding result [1]: no binding (tested: 150 ng IgG1 per well)

Cells stained (%) [2]: 0.87%
B2: HW-70 chimeric rabbit-human IgG1 LA/LA/PG (antibody, V domains shown)
VH: QSLEESGGRLVTPGTPLTLTCTVSGFSLSSNAMSWVRQAPGKGLEWIGTIDGYGYTYYASWAKGRFTVSKTSTTVDLKITSPTTEDTATYFCAREIYLGSNFWGPGTLVTISS
VL: B3 VL with D13N, E25D, S30R, S90A, Y99F
notes: as for B7
binding result [1]: no binding (tested: 150 ng IgG1 per well)

Cells stained (%) [3]: 94.3%
B4: HW-101 chimeric rabbit-human IgG1 LA/LA/PG (antibody, V domains shown)
VH: QEQLVESGGRLVTPGTPLTLTCKASGFSLGKYDMSWVRQAPGKGLEWIGTIYAGSGSTWYASWAKGRFTISKTSTTVDLKMTSLTTEDTATYFCARDFLGVNSIWGPGTLVTISS
VL: B3 VL with D13N, E25D, G40D, Y48H, S65N, S96N, Y97F, Q98H, Y99F
notes: Fc-silenced (L234A/L235A/P329G) IgG1, lambda; Alexa Fluor 647-labeled in single-step flow cytometry; Cluster C-97

Cells stained (%) [2]: 0.87%
B6: HW-25 chimeric rabbit-human IgG1 LA/LA/PG (antibody, V domains shown)
VH: QSLEESGGRLVTPGTPLTLTCTVSGFSLSSYAMGWVRQAPGKGLEWIGIIDSRGSTYYATWAKGRFTISKTSTTVDLKITSPTTEDTATYFCAREDSYYYDSFNLWGPGTLVTVSS
VL: B3 VL with D13N, E25D, S30R, Y99C
notes: as for B7
binding result [1]: no binding (tested: 150 ng IgG1 per well)

Cells stained (%) [3]: 2.62%
B8: TH9-0022 (antibody, human IgG1, kappa, L234A L235A, V domains shown)
VH: QSLEESGGRLVTPGTPLTLTCTVSGFSLSSYAMNWVRQAPGKGLEWIGIINSYGSTYYASWAKGRFTISKTSTTVDLKITSPTTEDTATYFCARVTYDSYGYGYAPYGMDLWGPGTLVTVSS
VL: LVMTQTPSSTSNAVGGTVTIKCQASQSIGNVLAWYQQKPGQPPKLLIYAASTLASGVPSRVGGSRSGTEYTLTISGVQREDAATYYCLGSDSDSDIAFGGGTELEILR
notes: also called TH9-022; negative control
binding result [1]: no binding (tested: 150 ng IgG1 per well)
